These results are taken from publication PMC6405639 (2019).

A word on the IC50: it is the concentration that inhibits the measured activity by half. A lower IC50 goes with greater potency.

The target in this experiment is Y2R_cysteine_deficient_eYFP (in HEK293 cells) (human, UniProt P49146 1-381, C58^1.40A | C103^2.57S | C151^3.53S | C272^6.39A | C316^7.44A | C342^7.70A).
Sequence of Y2R_cysteine_deficient_eYFP (in HEK293 cells) (P49146 other isoform, or with tags, fused parts or gaps with the stated changes): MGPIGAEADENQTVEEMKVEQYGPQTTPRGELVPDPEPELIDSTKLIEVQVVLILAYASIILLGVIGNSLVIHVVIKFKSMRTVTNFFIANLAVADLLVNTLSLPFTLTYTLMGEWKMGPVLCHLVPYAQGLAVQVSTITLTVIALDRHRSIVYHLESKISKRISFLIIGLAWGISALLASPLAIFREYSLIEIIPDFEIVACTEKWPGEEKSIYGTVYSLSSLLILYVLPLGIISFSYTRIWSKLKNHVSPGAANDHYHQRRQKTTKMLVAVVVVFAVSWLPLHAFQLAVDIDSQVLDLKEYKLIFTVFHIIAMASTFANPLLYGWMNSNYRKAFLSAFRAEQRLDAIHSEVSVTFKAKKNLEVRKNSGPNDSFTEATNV

B1: Porcine neuropeptide Y (peptide)
peptide: not shown
modifications: C-terminal amide
Molecule B1 returned a half-inhibitory concentration (IC50) of 8.2 nM.
